Measurements as given in publication PMC3869717, “The PCNA Interaction Protein Box Sequence in Rad54 Is an Integral Part of Its ATPase Domain and Is Required for Efficient DNA Repair and Recombination”.
Numbering of substitutions follows the chain as printed.

Columns and labels:
Rad54 = target: T1, Rad54 (Saccharomyces cerevisiae, UniProt P32863 1-898); test: EMSA (native PAGE); no ATP; Buffer D: 40 mM Tris-HCl pH 7.8, 50 mM KCl, 1 mM DTT, 100 µg/ml BSA, 30 °C, 10 min; plasmid 30 µM nucleotides with 31.25-1000 nM protein; 49-mer 3 nM with 12.5-200 nM protein; settings: protein: recombinant; blunt
T1 sequence: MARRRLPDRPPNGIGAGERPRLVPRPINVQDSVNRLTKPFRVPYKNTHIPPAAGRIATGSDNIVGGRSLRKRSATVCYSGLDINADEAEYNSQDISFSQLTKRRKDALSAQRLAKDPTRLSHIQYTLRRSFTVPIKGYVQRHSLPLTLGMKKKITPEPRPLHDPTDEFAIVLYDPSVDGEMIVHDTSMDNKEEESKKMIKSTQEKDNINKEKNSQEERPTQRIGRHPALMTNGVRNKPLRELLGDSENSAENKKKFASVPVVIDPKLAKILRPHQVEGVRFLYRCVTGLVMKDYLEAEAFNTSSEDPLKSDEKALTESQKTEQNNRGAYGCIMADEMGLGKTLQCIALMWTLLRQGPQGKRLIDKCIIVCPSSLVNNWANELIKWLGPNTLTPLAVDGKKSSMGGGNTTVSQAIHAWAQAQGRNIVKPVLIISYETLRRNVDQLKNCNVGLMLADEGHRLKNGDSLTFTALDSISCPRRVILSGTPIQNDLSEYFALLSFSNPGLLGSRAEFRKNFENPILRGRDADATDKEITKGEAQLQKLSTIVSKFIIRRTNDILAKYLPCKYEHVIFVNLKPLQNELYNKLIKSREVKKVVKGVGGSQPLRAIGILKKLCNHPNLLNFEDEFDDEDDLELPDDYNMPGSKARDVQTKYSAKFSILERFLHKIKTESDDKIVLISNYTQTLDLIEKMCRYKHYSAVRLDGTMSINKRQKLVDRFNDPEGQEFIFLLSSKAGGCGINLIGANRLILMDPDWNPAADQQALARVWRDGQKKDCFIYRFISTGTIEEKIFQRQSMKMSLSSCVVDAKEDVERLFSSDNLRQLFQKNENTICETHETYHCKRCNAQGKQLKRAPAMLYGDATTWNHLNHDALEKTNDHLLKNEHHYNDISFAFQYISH

Rad54-AA = target: T2, Rad54-AA (Saccharomyces cerevisiae, UniProt P32863 1-898, Y494A;F495A); test: EMSA (native PAGE); no ATP; equal to wild type; Buffer D: 40 mM Tris-HCl pH 7.8, 50 mM KCl, 1 mM DTT, 100 µg/ml BSA, 30 °C, 10 min; plasmid 30 µM nucleotides with 31.25-1000 nM protein; 49-mer 3 nM with 12.5-200 nM protein; settings: protein: recombinant; blunt
T2 sequence: T1 sequence with Y494A, F495A

B1: dsDNA 49-mer (dsDNA)
DNA 1: AGCTACCATGCCTGCACGAATTAAGCAATTCGTAATCATGGTCATAGCT
DNA 2: AGCTATGACCATGATTACGAATTGCTTAATTCGTGCAGGCATGGTAGCT
binding result (Rad54): binds
binding result (Rad54-AA): binds
